{"source": "paper PMC4446439", "test_system": "LSD1Δ1 (KDM1);CoRESTΔ1 (human;human)", "assay": "HI-FI fluorescence quenching", "conditions": "20 mM Tris-HCl pH 7.6, 50 mM NaCl, 5 mM DTT, 5% glycerol, 0.01% NP40, 0.01% CHAPS, 100 ug/ml BSA, 2 mM EDTA, room temperature, 15 min", "data": [{"substance": "159 bp nucleosome 7N7, H3 K27C", "values": [{"measurement": "Kd", "value": 236, "unit": "nM"}]}, {"substance": "181 bp nucleosome 18N18, H3 K27C", "values": [{"measurement": "Kd", "value": 100, "unit": "nM"}]}, {"substance": "177L nucleosome 31N1, H3 K27C", "values": [{"measurement": "Kd", "value": 769, "unit": "nM"}]}, {"substance": "157 bp nucleosome 6N6, H3 K27C", "values": [{"measurement": "Kd", "value": 470, "unit": "nM"}]}, {"substance": "165 bp nucleosome 10N10, H3 K27C", "values": [{"measurement": "Kd", "value": 205, "unit": "nM"}]}, {"substance": "147 bp nucleosome 1N1, H3 K27C", "values": [{"measurement": "Kd", "value": 1640, "unit": "nM"}]}, {"substance": "207 bp nucleosome 31N31, H3 A21C", "values": [{"measurement": "Kd", "value": 3, "unit": "nM"}]}, {"substance": "157 bp nucleosome 6N6, H3 A21C", "values": [{"measurement": "Kd", "value": 17.6, "unit": "nM"}]}, {"substance": "151 bp nucleosome 3N3, H3 K27C", "values": [{"measurement": "Kd", "value": 716, "unit": "nM"}]}, {"substance": "151L nucleosome 5N1, H3 K27C", "values": [{"measurement": "Kd", "value": 718, "unit": "nM"}]}, {"substance": "177 bp nucleosome 16N16, H3 K27C", "values": [{"measurement": "Kd", "value": 214, "unit": "nM"}]}, {"substance": "181 bp nucleosome 18N18, H3 A21C", "values": [{"measurement": "Kd", "value": 3.8, "unit": "nM"}]}, {"substance": "147 bp nucleosome 1N1, H3 A21C", "values": [{"measurement": "Kd", "value": 81, "unit": "nM"}]}, {"substance": "155 bp nucleosome 5N5, H3 K27C", "values": [{"measurement": "Kd", "value": 419, "unit": "nM"}]}, {"substance": "161 bp nucleosome 8N8, H3 K27C", "values": [{"measurement": "Kd", "value": 232, "unit": "nM"}]}, {"substance": "185 bp nucleosome 20N20, H3 K27C", "values": [{"measurement": "Kd", "value": 135, "unit": "nM"}]}, {"substance": "169 bp nucleosome 12N12, H3 K27C", "values": [{"measurement": "Kd", "value": 282, "unit": "nM"}]}, {"substance": "207 bp nucleosome 31N31, H3 K27C", "values": [{"measurement": "Kd", "value": 263, "unit": "nM"}]}, {"substance": "161L nucleosome 15N1, H3 K27C", "values": [{"measurement": "Kd", "value": 406, "unit": "nM"}]}, {"substance": "163 bp nucleosome 9N9, H3 K27C", "values": [{"measurement": "Kd", "value": 237, "unit": "nM"}]}]}
